Data taken from IntAct's records for PubMed 11842245.

B1: Protein Rep68 (Adeno-associated virus 2 (isolate Srivastava/1982)), P03132 (parent)
chain: MPGFYEIVIKVPSDLDGHLPGISDSFVNWVAEKEWELPPDSDMDLNLIEQAPLTVAEKLQRDFLTEWRRVSKAPEALFFVQFEKGESYFHMHVLVETTGVKSMVLGRFLSQIREKLIQRIYRGIEPTLPNWFAVTKTRNGAGGGNKVVDECYIPNYLLPKTQPELQWAWTNMEQYLSACLNLTERKRLVAQHLTHVSQTQEQNKENQNPNSDAPVIRSKTSARYMELVGWLVDKGITSEKQWIQEDQASYISFNAASNSRSQIKAALDNAGKIMSLTKTAPDYLVGQQPVEDISSNRIYKILELNGYDPQYAASVFLGWATKKFGKRNTIWLFGPATTGKTNIAEAIAHTVPFYGCVNWTNENFPFNDCVDKMVIWWEEGKMTAKVVESAKAILGGSKVRVDQKCKSSAQIDPTPVIVTSNTNMCAVIDGNSTTFEHQQPLQDRMFKFELTRRLDHDFGKVTKQEVKDFFRWAKDHVVEVEHEFYVKKGGAKKRPAPSDADISEPKRVRESVAQPSTSDAEASINYADRLARGHSL
partner: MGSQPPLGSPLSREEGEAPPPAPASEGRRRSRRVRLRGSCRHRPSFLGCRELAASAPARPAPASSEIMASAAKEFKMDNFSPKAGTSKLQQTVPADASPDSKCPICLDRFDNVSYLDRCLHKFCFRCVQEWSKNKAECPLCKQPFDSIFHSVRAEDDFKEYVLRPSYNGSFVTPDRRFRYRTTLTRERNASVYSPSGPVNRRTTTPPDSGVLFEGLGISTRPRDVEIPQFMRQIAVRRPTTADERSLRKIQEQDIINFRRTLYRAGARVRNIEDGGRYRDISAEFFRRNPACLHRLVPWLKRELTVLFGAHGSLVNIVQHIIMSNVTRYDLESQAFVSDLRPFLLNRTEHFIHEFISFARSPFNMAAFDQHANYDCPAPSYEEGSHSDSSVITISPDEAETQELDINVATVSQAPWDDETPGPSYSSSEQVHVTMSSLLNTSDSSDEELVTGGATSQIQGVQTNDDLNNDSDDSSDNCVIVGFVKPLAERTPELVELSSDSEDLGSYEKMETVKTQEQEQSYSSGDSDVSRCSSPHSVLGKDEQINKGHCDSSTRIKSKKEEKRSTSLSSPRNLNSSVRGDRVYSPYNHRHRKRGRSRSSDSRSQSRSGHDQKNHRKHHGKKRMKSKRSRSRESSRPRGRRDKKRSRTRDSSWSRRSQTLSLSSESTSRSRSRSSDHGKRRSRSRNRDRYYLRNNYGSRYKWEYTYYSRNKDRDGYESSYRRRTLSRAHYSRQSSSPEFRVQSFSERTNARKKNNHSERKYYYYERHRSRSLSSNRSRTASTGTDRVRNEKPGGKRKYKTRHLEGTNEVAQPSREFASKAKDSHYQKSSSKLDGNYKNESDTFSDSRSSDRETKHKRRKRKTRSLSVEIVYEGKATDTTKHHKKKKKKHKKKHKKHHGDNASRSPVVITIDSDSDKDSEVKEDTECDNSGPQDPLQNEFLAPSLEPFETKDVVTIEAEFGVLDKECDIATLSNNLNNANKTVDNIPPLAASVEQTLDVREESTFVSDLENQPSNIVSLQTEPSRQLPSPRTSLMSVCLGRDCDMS

Variants of: B1
Conditions: with toprs_human TOPORS

Question: K340H was tested. Which “effect of a mutation on the interaction” value did it give?
Answer: increasing interaction
